One variant from IntAct's records for PubMed 21258410 can be followed below.

The chains are these.
B1: Mothers against decapentaplegic homolog 7 (Homo sapiens), O15105 (parent)
chain: MFRTKRSALVRRLWRSRAPGGEDEEEGAGGGGGGGELRGEGATDSRAHGAGGGGPGRAGCCLGKAVRGAKGHHHPHPPAAGAGAAGGAEADLKALTHSVLKKLKERQLELLLQAVESRGGTRTACLLLPGRLDCRLGPGAPAGAQPAQPPSSYSLPLLLCKVFRWPDLRHSSEVKRLCCCESYGKINPELVCCNPHHLSRLCELESPPPPYSRYPMDFLKPTADCPDAVPSSAETGGTNYLAPGGLSDSQLLLEPGDRSHWCVVAYWEEKTRVGRLYCVQEPSLDIFYDLPQGNGFCLGQLNSDNKSQLVQKVRSKIGCGIQLTREVDGVWVYNRSSYPIFIKSATLDNPDSRTLLVHKVFPGFSIKAFDYEKAYSLQRPNDHEFMQQPWTGFTVQISFVKGWGQCYTRQFISSCPCWLEVIFNSR

The experiment covers variants of B1. The note with it: with wwp2_human WWP2, O00308.
Chain of wwp2_human WWP2, O00308 (O00308 whole entry): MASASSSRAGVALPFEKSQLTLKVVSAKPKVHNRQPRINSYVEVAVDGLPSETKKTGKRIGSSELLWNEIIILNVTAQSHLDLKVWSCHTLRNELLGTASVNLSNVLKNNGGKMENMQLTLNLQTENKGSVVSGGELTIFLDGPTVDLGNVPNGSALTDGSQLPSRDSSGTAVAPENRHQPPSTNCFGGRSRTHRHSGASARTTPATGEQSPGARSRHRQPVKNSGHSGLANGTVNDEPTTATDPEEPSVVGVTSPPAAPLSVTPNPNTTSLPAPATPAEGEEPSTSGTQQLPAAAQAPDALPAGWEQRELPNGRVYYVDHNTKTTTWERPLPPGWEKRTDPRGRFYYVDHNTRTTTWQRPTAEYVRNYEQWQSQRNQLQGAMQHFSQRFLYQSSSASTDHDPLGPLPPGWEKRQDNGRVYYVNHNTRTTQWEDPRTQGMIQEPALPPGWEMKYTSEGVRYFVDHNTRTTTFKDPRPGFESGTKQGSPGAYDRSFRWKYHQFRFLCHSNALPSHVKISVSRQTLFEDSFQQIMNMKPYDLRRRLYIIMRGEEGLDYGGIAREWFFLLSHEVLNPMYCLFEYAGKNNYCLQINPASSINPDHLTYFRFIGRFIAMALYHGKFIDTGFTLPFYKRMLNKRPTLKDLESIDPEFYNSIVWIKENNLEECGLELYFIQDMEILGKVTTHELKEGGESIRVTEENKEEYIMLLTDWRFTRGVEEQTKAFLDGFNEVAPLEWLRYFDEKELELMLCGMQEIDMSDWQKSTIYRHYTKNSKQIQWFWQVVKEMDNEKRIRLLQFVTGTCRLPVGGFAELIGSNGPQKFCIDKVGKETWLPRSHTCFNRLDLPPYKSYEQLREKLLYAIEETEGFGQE
As to MFRTKRSALVRRLWRSRAPGGEDEEEGAGGGGGGGELRGEGATDSRAHGAGGGGPGRAGCCLGKAVRGAKGHHHPHPPAAGAGAAGGAEADLKALTHSVLKKLKERQLELLLQAVESRGGTRTACLLLPGRLDCRLGPGAPAGAQPAQPPSSYSLPLLLCKVFRWPDLRHSSEVKRLCCCESYGKINPELVCCNPHHLSRLCELESPPPGSSRYPMDFLKPTADCPDAVPSSAETGGTNYLAPGGLSDSQLLLEPGDRSHWCVVAYWEEKTRVGRLYCVQEPSLDIFYDLPQGNGFCLGQLNSDNKSQLVQKVRSKIGCGIQLTREVDGVWVYNRSSYPIFIKSATLDNPDSRTLLVHKVFPGFSIKAFDYEKAYSLQRPNDHEFMQQPWTGFTVQISFVKGWGQCYTRQFISSCPCWLEVIFNSR [P210G;Y211S], the “effect of a mutation on the interaction” value is listed as “disrupting interaction”.
